In article PMC6692557:

Target: HgdA (All5345), putative nucleoside-diphosphate-sugar epimerase / UDP-galactose 4-epimerase of Anabaena sp. PCC 7120 (Anabaena sp. PCC 7120)
Experiment: SEC; Superdex 75 10/300 on an ÄKTA system, Tris buffer (20 mmol/L Tris, 200 mmol/L NaCl, pH 7.5); masses calibrated with standard proteins (Gel Filtration LMW Calibration Kit)

- stoichiometry N: 2
Substance: HgdA (All5345), putative nucleoside-diphosphate-sugar epimerase / UDP-galactose 4-epimerase of Anabaena sp. PCC 7120 (enzyme)
